Percent of soluble full-length mutant htt associated with 3xFlag20Q-htt data for one substance are collected here from paper PMC3499431.

Where only a bound is given, the exact number is not on record here.

The experiment deals with 3xFlag20Q-htt (full-length humanized normal huntingtin, chimeric mouse/human exon 1 with a 20Q stretch and the human PRR, with a 3xFlag N-terminal epitope tag) (mouse | human). Description: co-IP; 500 ug whole brain cytoplasmic extract (mice 13, 16 or 27 months old) with 5-6 ug FLAG M2 or 1C2 antibody overnight at 4°C, captured on Protein G-agarose beads for 3 hr; same extraction buffer; eluted by boiling in SDS sample buffer; bound and non-bound fractions blotted with 1C2 and MAB2166; control without antibody.

“140Q-htt (soluble full-length mutant huntingtin of the CAG140 knock-in allele, chimeric mouse/human exon 1 with a 140Q stretch and the human PRR) (natural protein)”: the percent of soluble full-length mutant htt associated with 3xFlag20Q-htt is below 2.5%.
